Results as given in the DeepSol protein solubility set.

Experiment: soluble on expression in E. coli; label from the status in PepcDB or PDB records
In the case of “MGSDKIHHHHHHMNRDTERTTMEGEHLYSPKNDDAPPAPAPDSPASLLDELIEAARVKRDEEAYPITRHGIEAFVAHLARPKRPIETVSQATIDDMIAEIDRKLCRQVDAILHHPDFQQLESTWRSLKFLVERTDFRENIKIQFLDVGKAALLDDFDDSPDITKSGLYQKVYAAEYGQFGGQPIGAIVANYTFGPGAQDVKLLQYVASTSAMAHTPFIAAAGPAFFGIDSFGKLPNVKDLASLFEGPQFAKWNAFRESEDARYVGLTLPRFLLRLPYGANTTPVKRFNYDERVDGGDADFLWGNAAFAFATRLTASFADYRWCANVIGPKGGGTVADLPLYAYEAMGEIQNKIPTDVLISERREFELAEQGFIALTMRKHSDNAAFFSANSTQKPKFFGISKEGKDAELNYRLGTQLPYIFVVNRLAHYIKVIQRENIGTWKERGDLEQELNQWIRQYVADMDNPTEGVRSRRPLRQAEIFVSDVEGEPGWYRVDMKVRPHFKYMGASFTLSLVGKLEKR”, the “soluble on expression in E. coli” value is reported as “not soluble”.
In the case of “MGSDKIHHHHHHMNRLIGEKMNDVLSKVTDKEYLKQIEDVIKFHGHLSGGAFIGIQMYNIAKKVLDIKDTDRVYANCETRNCMPDAFQVLGNCTTGNKRLSIKDYDIMAVTVNKIIPENEVGTGVRIVFDHKKAEKYPALYNWFMNIKKVPHEEVISDLIDAGDSIYSWKSVEIHVSEKKPKFSAVCGLCGESFIKKGTDDENICPNCAEKSAE”, the “soluble on expression in E. coli” value is reported as “not soluble”.
In the case of “MGSDKIHHHHHHMNSGGYMAIPPGAILPESLPEFKIFMRNREGKYVLWAADGNRVTVAQLAKLSESGVQDVFVDIEESFKYEQYLEANLGKILDNQGITVDRKAAIFSRVSTNVVKAAFETSLKSGAMGMETLQRTQKMIENAMKFITDSNSLPALAKMIGHDYETYEHAMKVTWWTVAFISENPEILTYCQKDEISDAEQISETLRSCGVCALLHDIGKAYVPQEVINKNGPLTEIEWEIMKRHPLSGLAMLLDSELPAFVKKAIVQHHEDFDGGGYPMNLEGTNITVLARVLRIMDVFDAMTSRRPYKDPLSPMKVIQIMIGTPSHPEDNAEPAQDPRDRGMGRCFDHELLGKFIIFIGNVKLD”, the “soluble on expression in E. coli” value is reported as “not soluble”.
For “MGSDKIHHHHHHMNTLTDILNRPRKLRPECLLIVGDSNMGKTTIIHEFARQYYTKTVSDADMDLLSVTKPVLPILAPAKANVKELYINILNHFFVPFRASDPEAKLRNQAVHLMRKYETKMLIIDEIHNCLTGSAKLLPEVMNTLKNLSNELSLNIVGVGTREAITILHTDPQYASRFDVVNLPKWELNQDFLRLLVSYVRLLPLKKQSNLASKEIATLIFEVSGGNLGDLNRLLVECAKEAILQGDEEITYDIVHKFKWLKPTEGLRNIRNINLSLS”, the “soluble on expression in E. coli” value was “not soluble”.
In the case of “MGSDKIHHHHHHMNTPREVTLHFLRTAGHPLTRWALQRQPPSPKQLEEEFLKIPSNFVSPEDLDIPGHASKDRYKTILPNPQSRVCLGRAQSQEDGDYINANYIRGYDGKEKVYIATQGPMPNTVSDFWEMVWQEEVSLIVMLTQLREGKEKCVHYWPTEEETYGPFQIRIQDMKECPEYTVRQLTIQYQEERRSVKHILFSAWPDHQTPESAGPLLRLVAEVEESPETAAHPGPIVVHCSAGIGRTGCFIATRIGCQQLKARGEVDILGIVCQLRLDRGGMIQTAEQYQFLHHTLALYAGQLPEEPSP”, the “soluble on expression in E. coli” value is reported as “soluble”.
For “MGSDKIHHHHHHMNTSGWGKYPEIEAQVLTPSSEKALQDLIGTGSYDGVTPRGLGRSYGDSSLGKLMVKTLRLNHMLSFELQSGLLHCQSGVSLAEILEVFVPRGWFLPVTPGTKLVTVGGAIASDIHGKNHHIDGCFCDHVDFLDLLTGSGEIIRCSPHEQAQLFHATCGGMGLTGIILSAAIRLTPIKSAYIDQVTFKSANLGESFELFEKQAEQPYSVAWIDCISSGDKLGRSLLMTGKHAQHGALAAHHNPGLSVPLDLPSFILNPYSIKAFNTLYYHKARQRETHATVHYDPFFYPLDGIGHWNRMYGKNGFTQYQFVIPKEAGLQAMDLILRTIVNSKKGSFLAVLKAFGKENRNLLSFPMEGYTLALDFKIEPDLFPLLDRLDAMVLDHGGRLYLTKDARMNAETFRKCYPKWEQFQNIRQQYGARHTFLSMQSQRLGLD”, the “soluble on expression in E. coli” value was “not soluble”.
For “MGSDKIHHHHHHMNVFATLKTVFFGSKFLSSPVPIDGTPRRDLVSALNGLMPLCRTIPGVRLALDIREGQVVLALNWTPRTDGNAPTGSYHYIVSDEDGVREMADSQVLLTENGKDNLPGSMDDSRTHPTVSTEKTEKDSAHLKKDVQKKAGPTSPEDTGKKAKSHTLMQEVTAFLTSRYRFRFNVLTEETEVASVENNIPDTHLRYAKVDERWMNSLSLEAIETGIDCWDRDIQRFVRSRRISEYHPFTAYFEQLPEWDGTDRVSALARRVSDDPVWVNGFHRWMLGLSAQWMQLNPDNNRANSVAPLLVSSRQGLGKSTFCRLLMPDRLKSYYTESYDLSSPTSAEAKLAAYGLINLDEFDKLGASKMPLLKNLMQASALNIRKAYKHSASSLPRIASFIGTSNREDLLVDRTGSRRFLCVSLKHAIDCTTSVEHKQLYAQLKTELLSGERSWFNKEEEQTIQQHNALFYKHVPEEEVFRLCFRFATEEDNPQEVLSLSATQLFERMKAAHPSIMRGMTAYSLSRILPQLGERVHTTKGNVYRVVEC”, the “soluble on expression in E. coli” value was “not soluble”.
With “MGSDKIHHHHHHMNWDDIKIFLEVARAERLSTAAKRLTMDASTVSRRLHKLEESIATKLFDRTQDGHVLTPDGEMLLTSACKMEQDAQHALSSIHNNNEENCGLVRIGVTEALGNFFVSPNLLTLQQQHPSIDVHLLLFSRYVKISRNEADIAIAVERPKSTSMIVSKLCDYKLQLYVHQDYLDHNLKQYPQGITLDNLAEHKWVTYVDNLIFTDQLSYIKELDRYLSGELKANFSSTSIISQYFAIKSGLGIGILPCFLADQDKSLIKLHSQDITISRSFWLVTHPESKRLSHVNTVWQYLKQLVLEHAELLNPKE” the “soluble on expression in E. coli” value was “not soluble”.
For “MGSDKIHHHHHHMNYFSYLSLEERQNFFYKEPLSFSKNIEKEQLAYALGATLYTPGTKETIAEDIIRKKHVEATSIIFCLEDSISDKEVKFAEQNIVFQIQQISNLVSDNILNQADIPLLFIRVRQPSQMRTIVTELGSAVHCLCGFVFPKFTPVNGKSYIDQLAYINKLYSLSLYGMPILESPEIMYRETRVKSLLQIKDLLDSYRDYILNVRIGATDFSSIFGIRRNKHTPIYHITVVRDCISDIINIFSRATNGYVISGCVWEYFSNDYEEGLIQEVSLDHANGLIGKTVIHPSHIKVVQAMHIVTMEDYLDARSILQHANTYNGVLKSSFANKMNEVKPHYNWARKTILKSNIYGVLHENKQFTDLLITNAKQHV”, the “soluble on expression in E. coli” value was “not soluble”.
For “MGSDKIHHHHHHMNYKNRKRAYYQENSCMDNFICKNCGCLVVPEGAGTQHRNHCPHCLHSLHVDIIPGDRAADCDANMEPIGVWVRKNGEWAIIHRCTRCGHLSSNRIAADDNSVKLMSIALKPLAQPPFPLERIIEKLEKEETE”, the “soluble on expression in E. coli” value was “not soluble”.
In the case of “MGSDKIHHHHHHMPAFNQHDLSHFVGKHLIYTYDNGWNYELYVKNANTIDYRIHSGIVGNRWVKDQQVYIVQVAREVYKISWTEPTGTDVSLIANIADKVFHGTIFFPRWVINNPEKTVCFQNEHIAEMEAYRDAGPAYPTEVIDEFATITFIRDCGENNNDVINCPASELPADFPACLKK”, the “soluble on expression in E. coli” value is reported as “not soluble”.
In the case of “MGSDKIHHHHHHMPAKVYFTDMTTNPNMNMLQKLELLLKKVELEKIIEKDKFVAVKLHFGEYGNLAFIRPQYVKIIVDQIKKLGGKPFLTDANTLYTGHRSNAVDHLINAYLNGFTYEVTGAPVIIADGLRGSDEIKVKIDGNYVKEAKIGAAIALADAIVAVTHFKGHEATGFGGTIKNVGMGSASRAGKMEQHSESKPYVVEEKCVACGTCAKFCPVGAITVTKVAKIDYEKCIGCGQCIAMCSYGAMSPKWDSSTDSLSKKMAEYAKAVLKDKKAVFISFIMNISPDCDCWNMNKPPVAPDIGIAVSTDPVALDQACIDLVLQKTGKDPFLEVHPDVTWKTQLEYAEEIGLGTREYELVKVACDLK”, the “soluble on expression in E. coli” value is reported as “not soluble”.
For “MGSDKIHHHHHHMPDSPTTTSTLDLELLRTFVAVVDQHSFAQAGAHLARTQSSVTQHMQRLEQQTGVSLFQKKGRHKQLTESGRQLLRHARQMLSLNDDALNSLRDSSLSGVLRIGSPHDIADTILPPLLSHIARSAPRLRLEIDVGRSPFLMDDLHRGKVDMVISTREDPTLEGFALRTSPVWWICSAQYIHVPGEPLPLILVDEPSIYRRYALHALEAANIPWRQAYLASNLIGIKAATRAGLGVTPRSMEMLGPDMRVLGESEGLPRLPDVTYHLWIRPNTLNPLARKAYELIRASQSL”, the “soluble on expression in E. coli” value was “not soluble”.
In the case of “MGSDKIHHHHHHMPEPKQETDFTAPAFRWENQQLKAIYTPKNIYLDDLKGIERQKEKIIQNTLQFLNGLPANDVLLTGSRGTGKSSIVRALLTEYAPQGLRLIEIERDDLADLPKIQKIIQNRPEKYIVYCDDLAFNAEDENYRSLKSVLDGSLQSGSTNFIIYATSNRRHLLPEFMHENTPVTKVDVPQYTELHPQEAIEEKISLSDRFGLWLSFYPMDQNLYLEIVEHYLDKANMPFNDEVRAESLRWCQMRGQRSGRAAYQFSKHWIGLNALKDLSNN”, the “soluble on expression in E. coli” value is reported as “not soluble”.
In the case of “MGSDKIHHHHHHMPITQTTSAKKSKPIILMTMGQQDRNQHPYQVMTHKYMQPIVEIAGAIPLLMPTCFGIEDVDRYLDMVDGVYLSGAGSNIDPSLYGQENLTPEKSQDVNRDTVDLAIIAGALKRKLPILGICRGMQELNIALGGTLYQKVYSEPGFDDHREDPQTPNHVQYGPRHPIKTVPGSWLAKLIGDKTMVNSLHGQGICTLGKGLEALAYGEDGLIEAIHGPDYGQFILGVQWHPEWQANDNPDSIKLFQAFGSACRGEVSWQSANDAKLTA”, the “soluble on expression in E. coli” value is reported as “not soluble”.
In the case of “MGSDKIHHHHHHMPKEKYEPPDPRRMYTIMSSEEAANGKKSHWAELEISGKVRSLSSSLWSLTHLTALHLSDNSLSCIPSDIAKLHNLVYLDLSHNQIQSLPAELGNMVSLRELHLNYNQLRVLPFELGKLFQLQTLSLKGNPLTQDILNLCLEPDGTRRLLNYLLDNLSVSTEQPPPRSWIMLQEPDRTRPTALFSVMCYNVLCDKYATRQLYGYCPSWALNWDYRKKAIIQEILSCNADIISLQEVETEQYYSFFLVELKERGYNGFFSPKSRARTMSEQERKHVDGCAIFFKTEKFTLVQKHTVEFNQLAMANSEGSEAMLNRVMTKDNIGVAVLLELRKELIEMSSGKPHLGTEKQLILVANAHMHWDPEYSDVKLVQTMMFLSEVKNIIDKASRSLKSSVLGECGTIPLVLCADLNSLPDSGVVEYLSTGGVETNHKDFKELRYNESLTNFSCNGKNGMTNGRITHGFKLKSAYENGLMPYTNYTFDFKGIIDYIFYSKPQLNTLAILGPLDHHWLVENNISGCPHPLIPSDHFSLFAQLELLLPFLPQVNGIHLPGRR”, the “soluble on expression in E. coli” value is reported as “not soluble”.
For “MGSDKIHHHHHHMPKERVDVLAYKQGLFNTREQAKRGVMAGLVVNVINGERYDKPGEKIDEATELKLKGDKLKYVSRGGLKLEKALKVFVISVDGQITLDIGASTGGFTDVMLQNGAQLVYAVDVGTNQLVWKLRQDERVCSMEQYNFRYAEPSDFERGQPTFASIDVSFISLNLILPALSKILTDGGQVVALIKPQFEAGREQIGKHGIVKDKSVHETVLETVTTFATNYGFTVKELDFSPIQGGHGNIEFLAYLEKSAQAQNQVLTKIKSIVEQAHKEFKKNEET”, the “soluble on expression in E. coli” value was “not soluble”.
In the case of “MGSDKIHHHHHHMPKIWTERIFDDPEIYVLRIDDDRIRYFEAVWEIPEGISYNAYLVKLNGANVLIDGWKGNYAKEFIDALSKIVDPKEITHIIVNHTEPDHSGSLPATLKTIGHDVEIIASNFGKRLLEGFYGIKDVTVVKDGEEREIGGKKFKFVMTPWLHWPDTMVTYLDGILFSCDVGGGYLLPEILDDSNESVVERYLPHVTKYIVTVIGHYKNYILEGAEKLSSLKIKALLPGHGLIWKKDPQRLLNHYVSVAKGDPKKGKVTVIYDSMYGFVENVMKKAIDSLKEKGFTPVVYKFSDEERPAISEILKDIPDSEALIFGVSTYEAEIHPLMRFTLLEIIDKANYEKPVLVFGVHGWAPSAERTAGELLKETKFRILSFTEIKGSNMDERKIEEAISLLKKELE”, the “soluble on expression in E. coli” value is reported as “soluble”.
